Assay results as given in patent US20120039806A1 (BURNET INSTITUTE, published 2012).

Key:
[1] = target: T1, membrane bound human 5B6 on transiently transfected 293T cells (full length untagged h5B6, pIRES-Neo) (human, UniProt Q6UXN8 1-241); assay: flow cytometry on transiently transfected live 293T cells, soluble FLAG-tagged protein
T1 construct: also called human CLEC9A
From the text: (§1) Two-three days later, cells were harvested and surface immunofluorescence labeled using either (1) soluble FLAG-tagged biotinylated m5B6, h5B6 and Cire, and detected with Streptavidin PE, or (2) soluble FLAG-tagged 5B6, biotinylated anti-FLAG mAb 9H10, and Streptavidin-PE. Live cells were gated on forward and side scatter, or by propidium iodide exclusion and analysed for their surface binding of soluble 5B6.

[2] = target: T2, membrane bound mouse 5B6 on transiently transfected 293T cells (full length untagged m5B6, pIRES-Neo) (mouse); assay: as above
T2 construct: also called mouse Clec9A
T2 chain: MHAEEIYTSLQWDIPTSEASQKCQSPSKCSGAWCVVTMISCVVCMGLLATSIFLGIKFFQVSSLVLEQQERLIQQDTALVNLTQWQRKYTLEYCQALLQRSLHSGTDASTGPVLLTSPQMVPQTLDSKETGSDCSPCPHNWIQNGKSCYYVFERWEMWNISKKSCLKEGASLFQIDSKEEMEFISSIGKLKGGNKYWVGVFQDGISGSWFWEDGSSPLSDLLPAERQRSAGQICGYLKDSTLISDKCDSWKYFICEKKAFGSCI
From the text: as §1

[3] = target: T3, GST protein (control, plasmid control) (UniProt P08515 1-218 = GST); assay: pull-down on glutathione beads, anti-FLAG Western blot
T3 construct: also called GST alone; GST control
Procedure: (§2) Glutathione Sepharose resin coupled with either GST or GST-RNF41 proteins was resuspended in the binding buffer (0.2% NP-40 and 2% glycerol in 20 mM Tris-buffered saline, pH 7.5 containing complete protease inhibitor cocktail mixture (Roche) and 1 mM PMSF) and mixed with 1 μg/m purified FLAG-tagged soluble Clec9A (also in binding buffer) and incubated at 4° C. on a rotating wheel for 2 hours. The beads were washed extensively with the binding buffer to remove unbound proteins. Bound proteins were eluted from the beads by the addition of 2×SDS reducing sample and heated at 92° C. for 5 minutes. The eluted proteins were separated by SDS-PAGE followed by Western blot with anti-FLAG antibody.
(§3) The inventors subcloned and expressed full length RNF41 (RNF41FL), and RNF41 transcript variant 2 (RNF41₇₂₋₃₁₇) as GST-RNF41 fusion proteins in bacterial cells. The fusion proteins were immobilized onto glutathione beads, and incubated with mClec9A-ecto or with the control mClec12A-ecto. mClec9A-ecto directly bound to both GST-RNF41FL and GST-RNF41₇₂₋₃₁₇, but not to GST alone (FIG. 13). […] This confirmed that mClec9A binds specifically to RNF41.

[4] = target: T4, GST-RNF41FL (full length RNF41 as glutathione S-transferase fusion protein) (human, UniProt Q5R7T5 1-317 (Pongo abelii entry)); assay: as above
T4 construct: Expressed in BL21 (DE3) E. coli, solubilised with Sarcosyl and immobilised on Glutathione-Sepharose 4B; also called GST-RNF41 fusion protein; not shown: glutathione S-transferase (GST) of a modified pGEX-2T vector (GE Healthcare)
T4 sequence: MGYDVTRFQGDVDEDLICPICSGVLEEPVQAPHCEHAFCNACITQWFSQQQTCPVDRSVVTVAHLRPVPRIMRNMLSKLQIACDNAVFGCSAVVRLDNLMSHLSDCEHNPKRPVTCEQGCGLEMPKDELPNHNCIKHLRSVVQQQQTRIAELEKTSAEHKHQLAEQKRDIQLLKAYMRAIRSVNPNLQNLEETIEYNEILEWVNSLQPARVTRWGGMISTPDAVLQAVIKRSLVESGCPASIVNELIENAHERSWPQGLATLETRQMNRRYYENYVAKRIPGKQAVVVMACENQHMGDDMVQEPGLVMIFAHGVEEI
Procedure: as §2, §3

[5] = target: T5, GST-RNF41 72-317 (RNF41 transcript variant 2 as glutathione S-transferase fusion protein) (human, UniProt Q5R7T5 72-317 (Pongo abelii entry), N-terminal GST fusion, immobilised on Glutathione-Sepharose beads; carrier not in the letters); assay: as above
T5 construct: Expressed in BL21 (DE3) E. coli and immobilised on Glutathione-Sepharose 4B; not shown: GST carrier (glutathione S-transferase of the modified pGEX-2T vector) and any linker at the N end
T5 sequence: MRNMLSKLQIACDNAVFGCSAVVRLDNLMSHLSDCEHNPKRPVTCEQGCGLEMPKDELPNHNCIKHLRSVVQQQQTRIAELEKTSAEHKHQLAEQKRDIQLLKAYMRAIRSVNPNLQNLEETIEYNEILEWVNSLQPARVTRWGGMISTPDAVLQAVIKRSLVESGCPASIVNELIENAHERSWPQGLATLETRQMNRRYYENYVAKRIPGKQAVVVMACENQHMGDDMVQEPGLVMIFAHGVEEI
Procedure: as §2, §3

[6] = target: T6, RNF41 isoform encoded by RNF41 transcript variant 2 (Accession number NM-194358), GST-tagged, on the … (human, UniProt Q5R7T5 72-317 (Pongo abelii entry)); assay: human protein microarray (ProtoArray v4.1), biotinylated probe, Streptavidin-Alexa Fluor647
T6 construct: A bought array (Invitrogen); also called isoforms of RNF41; not shown: GST tag of the array protein
T6 sequence: T5 sequence
Procedure: Biotinylated purified soluble mClec9A-ecto and Cire (control) were diluted to 50 μg/ml in Casein Washing Buffer (Invitrogen) and hybridised to Human protein microarrays using the “ProtoArray Human Protein Microarray v4.1 Protein-Protein Interaction (PPI) kit for biotinylated proteins” (Invitrogen, #PAH05241011) as per manufacturer's instructions. Binding of the biotinylated proteins was detected using Streptavidin-Alexa Fluor647, and images acquired using a fluorescence microarray scanner (GenePix4000B scanner, Axon Instruments). Positive interactions were identified using the ProtoArray Prospector software (Invitrogen).

[7] = target: T7, Spectrin (purified from human erythrocytes, Sigma, #S3644) (human, UniProt P02549 1-2419; P11277 2-2137); assay: ELISA, spectrin coated, biotinylated soluble protein, SA-HRP
T7 construct: mature; A bought native preparation; also called purified spectrin
Procedure: ELISA plates (Costar, Broadway, Cambridge, UK) were coated overnight at 4° C. with […] of Spectrin (purified from human erythrocytes, Sigma, #S3644) or Actin (Sigma). Unbound proteins were washed away (PBS, 0.05% Tween-20), and the ELISA plates blocked with PBS, 1% BSA. Serially diluted biotinylated purified mClec9A-ecto, mClec9A-CTLD and Cire soluble proteins were plated (PBS, 1% BSA) and incubated at 4° C. overnight. Bound soluble proteins were detected using Streptavidin-HRP and visualised using ABTS.

T1 sequence (Q6UXN8 whole entry): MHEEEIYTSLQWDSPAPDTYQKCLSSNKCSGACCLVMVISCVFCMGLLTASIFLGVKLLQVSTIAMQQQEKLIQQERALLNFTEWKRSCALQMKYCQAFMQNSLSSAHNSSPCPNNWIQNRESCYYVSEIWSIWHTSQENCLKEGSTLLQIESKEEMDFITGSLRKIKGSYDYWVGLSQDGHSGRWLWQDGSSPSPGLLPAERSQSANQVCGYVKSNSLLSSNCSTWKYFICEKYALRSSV
T3 sequence (P08515 whole entry): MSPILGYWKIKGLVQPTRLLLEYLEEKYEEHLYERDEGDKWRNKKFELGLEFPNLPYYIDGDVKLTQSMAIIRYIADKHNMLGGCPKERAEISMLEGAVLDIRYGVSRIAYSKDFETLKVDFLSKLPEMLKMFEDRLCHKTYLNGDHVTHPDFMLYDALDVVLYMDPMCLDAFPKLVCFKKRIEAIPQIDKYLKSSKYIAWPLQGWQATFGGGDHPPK

B1: hCLEC9A-ecto (tagged soluble ectodomain human Clec9A; stalk and CTLD) (receptor)
chain: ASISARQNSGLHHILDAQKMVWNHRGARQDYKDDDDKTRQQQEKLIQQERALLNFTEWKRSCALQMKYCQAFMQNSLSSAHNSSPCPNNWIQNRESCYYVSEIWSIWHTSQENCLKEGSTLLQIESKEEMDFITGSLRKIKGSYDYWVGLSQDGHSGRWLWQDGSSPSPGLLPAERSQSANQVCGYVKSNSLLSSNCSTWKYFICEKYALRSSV
notes: also called soluble FLAG-tagged h5B6; soluble human 5B6
[1]
  binding result: binds
[2]
  binding result: binds

B2: mClec9A-ecto (tagged soluble ectodomain mouse Clec9A; stalk and CTLD) (receptor)
chain: ASISARQNSGLHHILDAQKMVWNHRGARQDYKDDDDKTREQQERLIQQDTALVNLTQWQRKYTLEYCQALLQRSLHSGTDASTGPVLLTSPQMVPQTLDSKETGSDCSPCPHNWIQNGKSCYYVFERWEMWNISKKSCLKEGASLFQIDSKEEMEFISSIGKLKGGNKYWVGVFQDGISGSWFWEDGSSPLSDLLPAERQRSAGQICGYLKDSTLISDKCDSWKYFICEKKAFGSCI
modifications: enzymatically biotinylated with BirA at the biotinylation consensus sequence where the filing says 'biotinylated' (ELISA, protein microarray); unbiotinylated FLAG-tagged protein in the pull-down and in FIG. 6
notes: also called soluble FLAG-tagged m5B6; soluble mouse 5B6
[1]
  binding result: binds
[2]
  binding result: binds
[3]
  binding result: no binding (tested: 1 µg/m)

B3: mClec12A-ecto (soluble FLAG-tagged mouse Clec12A, control) (receptor, not shown: small tags and cut ends)
chain (part 1 of 2): NSGLHHILDAQKMVWNHR
chain (part 2 of 2): YTTLATEMIKSNQLQRAKEELQENVFLQLKHNLNSSKKIKNLSAMLQSTATQLCRELYSKEPEHKCKPCPKGSEWYKDSCYSQLNQYGTWQESVMACSARNASLLKVKNKDVLEFIKYKKLRYFWLALLPRKDRTQYPLSEKMFLSEESERSTDDIDKKYCGYIDRVNVYYTYCTDENNIICEETASKVQLESVLNGLPEDSR
notes: extracellular domain; Control lectin
[4]
  binding result: no binding (tested: 1 µg/m)
[5]
  binding result: no binding (tested: 1 µg/m)

B4: Cire-ecto (soluble FLAG-tagged C-type lectin Cire, control) (receptor, mouse, not shown: small tags and cut ends)
chain (part 1 of 2): NSGLHHILDAQKMVWNHR
chain (part 2 of 2): VKVYKIPSSQEENNQMNVYQELTQLKAGVDRLCRSCPWDWTHFQGSCYFFSVAQKSWNDSATACHNVGAQLVVIKSDEEQNFLQQTSKKRGYTWMGLIDMSKESTWYWVDGSPLTLSFMKYWSKGEPNNLGEEDCAEFRDDGWNDTKCTNKKFWICKKLSTSCPSK
modifications: biotinylated with BirA where the filing says 'biotinylated' (ELISA, microarray)
notes: extracellular domain; Control lectin; The construct is described only as similar to the Clec9A constructs; also called mouse Cire/mDCSign; biotinylated Cire-ecto
[6]
  binding result: no binding (tested: 50 µg/ml)
[7]
  binding result: no binding
